Biological target: MITF N310S (DNA-binding fragment) (UniProt Q95MD1 112-207, N149S)
Experiment: EMSA; 5 mM MgCl2; 2.0 uM protein end point; reduced by about 80%; 20 mM Tris, 50 mM NaCl, 5 mM MgCl2, 1 mM DTT, 33 ug/ml BSA, pH 7.4, on ice 30 min; 6% native PAGE in 0.5x TBE
Conditions: protein: recombinant; (Ni-NTA purified); chain copies: 2; label: radioactive label

Chain of MITF N310S (DNA-binding fragment) (Q95MD1 entry or part of it N149S | N310S N310S): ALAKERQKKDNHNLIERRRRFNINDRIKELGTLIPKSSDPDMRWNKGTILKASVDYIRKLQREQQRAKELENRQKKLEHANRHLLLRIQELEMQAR

B1: M-box oligonucleotide (dsDNA)
DNA 1: GGAAAGTTAGTCATGTGCTTTTCAGAAGA
DNA 2: TCTTCTGAAAAGCACATGACTAACTTTCC
B1 was tested, and the binding signal was ~20 % of wild-type binding.

Reference: PMC3325211, “Mutations in MITF and PAX3 Cause “Splashed White” and Other White Spotting Phenotypes in Horses”
